{
  "source": "patent US20220242963A1",
  "about": "“B-CELL ACTIVATING CD73 ANTIBODIES” (CORVUS PHARMACEUTICALS, INC., priority 2018, published 2022)",
  "key": {"B cells (CD19+CD3−)": {"tested_on": "B cells (CD19+CD3−)", "experiment": "B cell activation in healthy donor PBMC, flow cytometry of surface markers / phospho ERK", "assay_type": "cell-based, human", "description": "With reference to FIGS. 2A-2E, each group of four bars from left to right represent data for: untreated donors, donors treated with human IgG1 isotype control, donors treated with BCR stimulation, and donors treated with CPI-006. The experiments for FIGS. 2A-2E are based on healthy donor PBMC treated overnight with flow cytometry analysis of surface markers on B cells (CD19^POS CD3^NEG). These lymphocyte markers are consistent with activation of B cells as well as other antigen presenting cell populations. […] The bar graph legend from top to bottom is representative of the data bars from left to right. […] For FIG. 2H the bar graph legend from top to bottom is representative of the data bars from left to right. For FIG. 2I the legend from top to bottom is representative of the data from top to bottom. […] For each group of four bars, the legend from top to bottom are representative of the bars from left to right.\nPBMC were isolated from healthy donors and incubated with bead-bound anti-IgM, CPI-006 (10 μg/mL), or human IgG1 isotype control (10 μg/mL) overnight. Flow cytometry analysis was performed with gating on B cells (CD19+CD3−) and mean fluorescence intensity (MFI) was reported for staining with antibodies to the cell surface markers CD69, CD83, and CD25, as shown in FIGS. 2A-2C. PBMC were isolated from healthy donors and incubated with CPI-006, CPI-016, human IgG1 isotype control, and anti-human CD73 antibody, clone AD2 (available from Bio-Rad Antibodies) over a range of concentrations from about 0.1 μg/mL to more than 10 μg/mL. Flow cytometry analysis was performed with gating on B cells (CD19+CD3−) and mean fluorescence intensity (MFI) is reported for antibody staining of CD69, as shown in FIG. 2F. PBMC were isolated from healthy donors and incubated overnight with bead-bound anti-IgM or CPI-006 (1 μg/mL)+/−BTK inhibitor, ibrutinib (100 nM). Flow cytometry analysis was performed with gating on B cells (CD19+CD3−) and mean fluorescence intensity (MFI) is reported for antibody staining of CD69 and CD83, as shown in FIG. 2G. PBMC were isolated from healthy donors and incubated overnight with APCP (1 μM) or CPI-006 (1 μg/mL)+/−NECA (5′-N-ethylcarboxamidoadenosine). Flow cytometry analysis was performed with gating on B cells (CD19+CD3−) and mean fluorescence intensity (MFI) is reported for antibody staining of CD69, as shown in FIGS. 2H-2I. PBMC were isolated from healthy donors and incubated with the indicated treatments for 15 minutes. Flow cytometry analysis was performed with gating on the indicated cell populations and staining of phospho ERK was evaluated, as shown in FIG. 2J."}, "CD73": {"target": "T1, CD73 (Homo sapiens, UniProt P21589)", "T1 construct": "endogenous in cells; host or cells: Whole blood of cancer patients (CD73+ CD8 T cells)", "T1 sequence (P21589 27-549)": "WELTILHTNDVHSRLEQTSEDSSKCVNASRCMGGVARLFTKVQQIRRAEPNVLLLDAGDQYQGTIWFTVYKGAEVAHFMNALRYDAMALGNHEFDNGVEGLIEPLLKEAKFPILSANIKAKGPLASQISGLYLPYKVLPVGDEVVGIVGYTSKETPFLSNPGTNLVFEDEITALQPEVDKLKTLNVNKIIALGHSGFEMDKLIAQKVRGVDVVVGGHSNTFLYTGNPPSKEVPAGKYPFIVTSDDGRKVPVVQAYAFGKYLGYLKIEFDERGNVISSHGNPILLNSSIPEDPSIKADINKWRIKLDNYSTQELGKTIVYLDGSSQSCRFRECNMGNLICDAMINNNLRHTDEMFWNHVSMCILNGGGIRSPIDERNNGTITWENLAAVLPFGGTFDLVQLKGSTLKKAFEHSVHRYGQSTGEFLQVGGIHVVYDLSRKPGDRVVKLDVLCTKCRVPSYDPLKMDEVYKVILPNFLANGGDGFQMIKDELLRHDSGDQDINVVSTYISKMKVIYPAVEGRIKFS", "experiment": "Phase 1/1B clinical trial: CD73 receptor occupancy in peripheral blood by flow cytometry", "assay_type": "in vivo", "conditions": "for sustained CD73 receptor occupancy in peripheral blood: once every 21 days", "protocol": "FIGS. 3A-3D show the pharmacokinetics/pharmacodynamics and CD73 receptor occupancy of CPI-006 after a first infusion in human patients. […] The dotted line marks one-hundred percent occupancy CD73 receptor occupancy. […]\nWith reference to Table 1, serum samples were collected from patients treated with CPI-006 alone (i.e., monotherapy) and levels of free CPI-006 were measured by ELISA, as shown in FIG. 3A. Whole blood samples from patients treated with CPI-006 alone were fixed and receptor occupancy was measured by flow cytometry gating on CD73+CD8 T cells, as shown in FIG. 3B. As illustrated in FIGS. 3A-3D, receptor exposure to CPI-006 increases and clearance decreases with increasing doses of CPI-006, and CIP-006 is detectable for 21 days after administration of a single dose of 6 mg/kg or higher. […] Other results from the study are described below and in Table 4. BLQ is below limit of quantification. TBD is to be determined."}, "T cell clones": {"tested_on": "T cell clones", "experiment": "T cell receptor Vb sequencing of peripheral blood (T cell clone frequency)", "assay_type": "in vivo, human", "protocol": "FIGS. 11A-11C show clonal abundance plots of T cell clones for three patients treated with CP1-006. Sequencing of the Vb region of the T cell receptor was performed to identify the frequency of unique T cell clones in peripheral blood samples collected pre-treatment and on-treatment at 6 weeks of 12 mg/kg CPI-006+ciforadenant (FIG. 11A), 12 mg/kg CPI-006 (FIG. 11B), or 18 mg/kg CPI-006 (FIG. 11C). Expansion of new T cell clones was observed after 6 weeks in 3 of 8 evaluated patients treated with CPI-006.\nImmunomodulatory activity of CPI-006 was evaluated in patients administered CPI-006. […] Further, T cell activation was evaluated upon treatment with various dosages of the monotherapy CPI-006 or a combination therapy of CPI-006 and ciforadenant. Once a T cell clone is activated, the clone can expand and produce clonal copies of the original clone. […] The results further affirm CPI-006 is an immunomodulator of CD73 positive cells."}, "[1]": {"conditions": "pre-dose versus 30 minutes after administration, FIG. 3D"}},
  "note": "Where “and” joins values, the source holds several entries; their conditions need not be identical. Identical values can stand only once.",
  "data": [
    {"molecule": "CPI-006: humanized CD73 antibody, wherein the light chain is SEQ ID NO:8 and the heavy chain is SEQ ID NO:7; IgG1 Fcγ receptor-deficient (antibody, V domains shown) VH: QVQLVQSGAEVEKPGASVKVSCKASGYTFTSYWITWVRQAPGQGLEWMGDIYPGSGNTNYNEKFKTRVTITADKSTSTAYMELSSLRSEDTAVYYCAKEGGLTTEDYALDYWGQGTLVTV VL: EIVLTQSPATLSLSPGERATLSCRASKNVSTSGYSYMHWYQQKPGQAPRLLIYLASNLESGIPPRFSGSGYGTDFTLTINNIESEDAAYYFCQHSRELPFTFGQGTKVEIK", "values": [
      {"measurement": "B cell activation (CD69, CD83) +/− NECA, versus APCP", "setting": "B cells (CD19+CD3−); CPI-006 1 μg/mL, APCP 1 μM, overnight, FIGS. 2H-2I", "result": "independent of adenosine"},
      {"measurement": "B cell activation (CD69, CD83) +/− BTK inhibitor ibrutinib", "setting": "B cells (CD19+CD3−); CPI-006 1 μg/mL, ibrutinib 100 nM, overnight, FIG. 2G", "result": "via BTK"},
      {"measurement": "expression of B cell activation marker CD69", "setting": "B cells (CD19+CD3−); PBMC overnight, CPI-006 10 μg/mL, gated on B cells, FIG. 2A", "result": "induces expression"},
      {"measurement": "expression of B cell activation marker CD83", "setting": "B cells (CD19+CD3−); PBMC overnight, CPI-006 10 μg/mL, gated on B cells, FIG. 2B", "result": "induces expression"},
      {"measurement": "expression of B cell activation marker CD25", "setting": "B cells (CD19+CD3−); PBMC overnight, CPI-006 10 μg/mL, gated on B cells, FIG. 2C", "result": "induces expression"},
      {"measurement": "antigen-presenting cell marker CD86", "setting": "B cells (CD19+CD3−); PBMC overnight, gated on B cells, FIG. 2D", "result": "activates"},
      {"measurement": "antigen-presenting cell marker MHC-II", "setting": "B cells (CD19+CD3−); PBMC overnight, gated on B cells, FIG. 2E", "result": "activates"},
      {"measurement": "phospho-ERK signaling in B cells versus T cells", "setting": "B cells (CD19+CD3−); PBMC, 15 minutes, FIG. 2J", "result": "to a greater extent than in CD4+ T cells or CD8+ T cells"},
      {"measurement": "induction of B cell activation (CD69 MFI) compared with other antibodies", "setting": "B cells (CD19+CD3−); about 0.1 μg/mL to more than 10 μg/mL, versus CPI-016, isotype control, AD2, FIG. 2F", "result": "unique to CPI-006"},
      {"measurement": "direct B cell activation", "setting": "B cells (CD19+CD3−); human B lymphocytes", "result": "directly activates human B lymphocytes"},
      {"measurement": "sustained CD73 receptor occupancy in peripheral blood", "setting": "CD73; 1 mg/kg and 3 mg/kg doses", "result": "not"},
      {"measurement": "CD73 receptor occupancy on peripheral B cells", "setting": "CD73; 3 mg/kg, patients 4-6 (Pancreatic, Pancreatic, Prostate)", "result": "88.12% and 74.57% and 58.19%"},
      {"measurement": "sustained CD73 receptor occupancy in peripheral blood", "setting": "CD73; 6 mg/kg and 12 mg/kg doses", "result": "sustained CD73 receptor occupancy"},
      {"measurement": "CD73 receptor occupancy on peripheral B cells", "setting": "CD73; 6 mg/kg, patients 7-9 (Colorectal, Prostate, SCHN)", "result": "97.90% and 98.31% and 101.60%"},
      {"measurement": "receptor occupancy dose dependence", "setting": "CD73; clinical data, 1, 3, and 6 mg/kg", "result": "dose proportional"},
      {"measurement": "CPI-006 binding site on cell surface CD73 (free CD73)", "setting": "CD73; [1]", "result": "occupied"},
      {"measurement": "total cell surface CD73", "setting": "CD73; [1]", "result": "remains unchanged"},
      {"measurement": "generation of new T cell clones", "setting": "T cell clones; 12 or 18 mg/kg CPI-006, or 12 mg/kg CPI-006 + ciforadenant, 6 weeks, FIGS. 11A-11C", "result": "new T cell clones were generated"},
      {"measurement": "evaluated patients with expansion of new T cell clones", "setting": "T cell clones; after 6 weeks of treatment, peripheral blood", "result": "3 of 8"}
    ]}
  ]
}
